According to US20210253715A1 (NATIONAL RESEARCH COUNCIL OF CANADA, published 2021):

Legend:
human IGF1R [1] = biological target: T1, human IGF1R (human, UniProt P08069 31-932, limits assumed); assay: SPR, Biacore T200, hIGF1R immobilised on CM4 chip; parental VHH, not the IDS fusion
T1 construct: also called hIGF1R; h-IGF1R

human IGF1R [2] = biological target: T1, human IGF1R; assay: SPR (Biacore T200), hIGF1R immobilised on CM4 chip, analyte injected at 20 nM, 25 C
Procedure: (§1) Surface Plasmon Resonance (SPR) analysis was performed to determine the affinity of the IGF1R3H5-IDS construct towards human IGF1R (hIGR1R). The SPR analysis was performed on a Biacore T200 (GE Healthcare) under the following conditions. hIGF1R was immobilized on a CM4 chip at high density (FC1—ethanoloamine blocked; FC3—2,500 RUs of hIGF1R). A variable concentration of the flowing molecule was used, with contact and dissociations times of 300 and 400 s, respectively. The assay was performed at 25° C. with a flow rate of 40 μL/min and the chip was regenerated in 10 mM glycine (pH 5.5). […] In summary, the IGF1R3H5-IDS construct retains its ability to bind to the target receptor IGF1R.

human IGF1R [3] = biological target: T1, human IGF1R; assay: SPR, Biacore T200, hIGF1R immobilised on CM4 chip, analyte at 50 nM (FIG. 5D); the filing calls this value inaccurate because of matrix effects; analyte at 50 nM (FIG. 5D); matrix effects, called inaccurate
Procedure: as §1

human IGF1R [4] = biological target: T1, human IGF1R; assay: SPR (Biacore T200), hIGF1R immobilised on CM4 chip, analyte injected at 50 nM, 25 C; text calls the affinity at this concentration inaccurate (matrix effects)
Procedure: as §1

human IGF1R [5] = biological target: T1, human IGF1R; assay: SPR (Biacore T200), hIGF1R immobilised on CM4 chip, analyte injected at 2.5 nM, 25 C
Procedure: as §1

human IGF1R [6] = biological target: T1, human IGF1R; assay: SPR, Biacore T200, hIGF1R immobilised on CM4 chip, analyte at 2.5 nM (FIG. 5C); analyte at 2.5 nM (FIG. 5C)
Procedure: as §1

human IGF1R [7] = biological target: T1, human IGF1R; assay: SPR (Biacore T200), hIGF1R immobilised on CM4 chip, analyte injected at 50 nM, 25 C; text says matrix effects lower the on-rate at this concentration
Procedure: as §1

T1 sequence (P08069 31-932 limits assumed): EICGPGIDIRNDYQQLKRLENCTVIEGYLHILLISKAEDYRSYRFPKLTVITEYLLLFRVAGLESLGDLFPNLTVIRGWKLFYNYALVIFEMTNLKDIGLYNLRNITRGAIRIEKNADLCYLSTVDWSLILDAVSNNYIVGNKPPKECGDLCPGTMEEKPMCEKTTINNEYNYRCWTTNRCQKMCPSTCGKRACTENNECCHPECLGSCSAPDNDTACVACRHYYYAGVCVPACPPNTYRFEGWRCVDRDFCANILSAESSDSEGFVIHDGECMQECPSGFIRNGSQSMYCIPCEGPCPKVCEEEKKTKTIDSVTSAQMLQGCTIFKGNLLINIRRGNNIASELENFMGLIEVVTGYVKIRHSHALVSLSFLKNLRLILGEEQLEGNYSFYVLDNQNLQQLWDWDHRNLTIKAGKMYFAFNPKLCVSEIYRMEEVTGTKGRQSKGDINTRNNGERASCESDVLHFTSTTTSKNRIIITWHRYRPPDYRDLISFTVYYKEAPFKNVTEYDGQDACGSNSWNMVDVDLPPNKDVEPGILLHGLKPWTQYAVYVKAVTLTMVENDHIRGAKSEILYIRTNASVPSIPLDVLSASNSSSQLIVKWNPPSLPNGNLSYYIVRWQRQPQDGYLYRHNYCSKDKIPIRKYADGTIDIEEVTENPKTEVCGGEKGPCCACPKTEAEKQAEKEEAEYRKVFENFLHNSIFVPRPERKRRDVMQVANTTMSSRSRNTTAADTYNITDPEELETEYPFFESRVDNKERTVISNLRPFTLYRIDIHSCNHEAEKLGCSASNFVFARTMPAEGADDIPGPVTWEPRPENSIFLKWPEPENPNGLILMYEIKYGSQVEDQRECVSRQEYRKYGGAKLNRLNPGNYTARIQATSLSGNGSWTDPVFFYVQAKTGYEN

Binder	Kd (human IGF1R [1]) [nM]	koff (human IGF1R [1]) [s⁻¹]	kon (human IGF1R [1]) [M⁻¹ s⁻¹]	Kd (human IGF1R [2]) [nM]	koff (human IGF1R [2]) [s⁻¹]	kon (human IGF1R [2]) [M⁻¹ s⁻¹]	Kd (human IGF1R [3]) [nM]	Kd (human IGF1R [4]) [nM]	Kd (human IGF1R [5]) [nM]	koff (human IGF1R [5]) [s⁻¹]	kon (human IGF1R [5]) [M⁻¹ s⁻¹]	Kd (human IGF1R [6]) [nM]	koff (human IGF1R [7]) [s⁻¹]	kon (human IGF1R [7]) [M⁻¹ s⁻¹]
IGF1R3H5 VHH (VHH, also called parental VHH IGF1R3H5) VHH: EVQLVESGGGLVQPGGSLRLSCAASEYPSNFYAMSWFRQAPGKEREFVSGVSRDGLTTLYADSVKGRFTISRDNSKNTLYLQMNSLRAEDTAVYYCAIVITGVWNKVDVNSRSYHYWGQGTLVTVSS	7.5	0.00251	334000											
IGF1R3H5-IDS (uncapped) (other, phosphorylated N-glycans; Man-6-P uncapped by Jack Bean alpha-mannosidase (JBMan) treatment, Single-chain fusion of a VHH with an enzyme, made in Yarrowia lipolytica; the two differ only in N-glycan uncapping; also called uncapped IGF1R3H5-IDS; P454) EVQLVESGGGLVQPGGSLRLSCAASEYPSNFYAMSWFRQAPGKEREFVSGVSRDGLTTLYADSVKGRFTISRDNSKNTLYLQMNSLRAEDTAVYYCAIVITGVWNKVDVNSRSYHYWGQGTLVTVSSGGGGSGGGGSGGGGSGGGGSGGGGSSETQANSTTDALNVLLIIVDDLRPSLGCYGDKLVRSPNIDQLASHSLLFQNAFAQQAVCAPSRVSFLTGRRPDTTRLYDFNSYWRVHAGNFSTIPQYFKENGYVTMSVGKVFHPGISSNHTDDSPYSWSFPPYHPSSEKYENTKTCRGPDGELHANLLCPVDVLDVPEGTLPDKQSTEQAIQLLEKMKTSASPFFLAVGYHKPHIPFRYPKEFQKLYPLENITLAPDPEVPDGLPPVAYNPWMDIRQREDVQALNISVPYGPIPVDFQRKIRQSYFASVSYLDTQVGRLLSALDDLQLANSTIIAFTSDHGWALGEHGEWAKYSNFDVATHVPLIFYVPGRTASLPEAGEKLFPYLDPFDSASQLMEPGRQSMDLVELVSLFPTLAGLAGLQVPPRCPVPSFHVELCREGKNLLKHFRFRDLEEDPYLPGNPRELIAYSQYPRPSDIPQWNSDKPSLKDIKIMGYSIRTIDYRYTVWVGFNPDEFLANFSDIHAGELYFVDSDPLQDHNMYNDSQGGDLFQLLMPHHHHHHHHWSHPQFEK				40.2	0.00289	71900								
IGF1R3H5-IDS (capped) (other, phosphorylated N-glycans; Man-6-P still capped (no uncapping), also called capped IGF1R3H5-IDS) EVQLVESGGGLVQPGGSLRLSCAASEYPSNFYAMSWFRQAPGKEREFVSGVSRDGLTTLYADSVKGRFTISRDNSKNTLYLQMNSLRAEDTAVYYCAIVITGVWNKVDVNSRSYHYWGQGTLVTVSSGGGGSGGGGSGGGGSGGGGSGGGGSSETQANSTTDALNVLLIIVDDLRPSLGCYGDKLVRSPNIDQLASHSLLFQNAFAQQAVCAPSRVSFLTGRRPDTTRLYDFNSYWRVHAGNFSTIPQYFKENGYVTMSVGKVFHPGISSNHTDDSPYSWSFPPYHPSSEKYENTKTCRGPDGELHANLLCPVDVLDVPEGTLPDKQSTEQAIQLLEKMKTSASPFFLAVGYHKPHIPFRYPKEFQKLYPLENITLAPDPEVPDGLPPVAYNPWMDIRQREDVQALNISVPYGPIPVDFQRKIRQSYFASVSYLDTQVGRLLSALDDLQLANSTIIAFTSDHGWALGEHGEWAKYSNFDVATHVPLIFYVPGRTASLPEAGEKLFPYLDPFDSASQLMEPGRQSMDLVELVSLFPTLAGLAGLQVPPRCPVPSFHVELCREGKNLLKHFRFRDLEEDPYLPGNPRELIAYSQYPRPSDIPQWNSDKPSLKDIKIMGYSIRTIDYRYTVWVGFNPDEFLANFSDIHAGELYFVDSDPLQDHNMYNDSQGGDLFQLLMPHHHHHHHHWSHPQFEK				46.1	0.00295	64000	~70	69.8	7.42	0.00288	388000	~7	0.0029	42000
